Assay results reported in patent US20090285798A1.

Biological target: gp120
Assay: fluorescence anisotropy, Kd values of Table I, told of the isolates together

Alexa labeled mini-protein CD4M47 (peptide)
fold gain of affinity over CD4M48: 3 fold
